Data taken from article PMC10272880.

Target: T1, LldR (Escherichia coli K-12 W3110 type-A) (UniProt P0ACL7)
T1 sequence: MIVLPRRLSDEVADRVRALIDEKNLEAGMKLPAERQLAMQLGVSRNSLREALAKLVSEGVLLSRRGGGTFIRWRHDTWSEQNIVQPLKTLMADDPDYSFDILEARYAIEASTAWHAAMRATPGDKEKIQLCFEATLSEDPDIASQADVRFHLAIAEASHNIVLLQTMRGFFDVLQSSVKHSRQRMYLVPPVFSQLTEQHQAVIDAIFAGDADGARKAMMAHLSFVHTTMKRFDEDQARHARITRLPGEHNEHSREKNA
Experiment: EMSA
Conditions: EMSA: binding buffer (composition given for gSELEX: 10 mM Tris-HCl pH 7.8 at 4 °C, 3 mM Mg acetate, 150 mM NaCl, 1.25 mg/ml BSA), 37 °C 30 min, then effector …

| Sequence | binding |
| --- | --- |
| GATTTTCAACCAGATATGATCATGGTTACGCCATCTTATTGCCTTAACCTGATTGAAGAGCTGGAGCGGCAGTTGGGCGGTGATGCCAGCGGTTGCTCGCTGCGGGTTGGAGTATTTGGTGCTGAGCCGTGGACACAGGCCATGCGTAAAGAGATTGAGCGTCGCCTGGGGATCACCGCACTGGATATTTATGGCCTGTCAGAAGTGATGGGGCCGGGGGTGGCGATGGAGTGTCTGGAAACTACCGACGGCCCAACCATTTGGGAAGATCATTTCTATCCTGAAATTGTTA (double strand) [paaX promoter probe] | no binding |
| TCCCGGACCTCGTGCACAGGTAGGACCAATTTTTCTGTTCTTAACTCGCAAAACACGCACATCACGTAAGTGATTATGTTACATCAATTTAACATTGAGTTAACCAAGACAAGGTCACAGAGCTGGAAAAAAAATGGTCTGACCGGTAGCTAAAGAGATAGACGAAAACGAAAAGCCCGCTTAATAACTGTTCACAGAAGCAGCGCGCAAAAATCAGCTGCCACACAACACAACAAAGCGAAGCCTACTCATGAGCATCTTGTACGAAGAGCGTCTT (double strand) [glcD/glcC probe] | binds |
